Assay in all cases: BLI
Background: Biolayer interferometry detects binding as a change in optical thickness at a sensor tip.

The target in test [1] is T1, human TLR3 ectodomain (Wuxi Biologics, custom order) (human, UniProt O15455 24-704, biotin (for yeast display)).
The target in test [2] is T1, human TLR3 ectodomain (Wuxi Biologics, …). This is another data set of the same source.
Test [3] shares this target. The source holds these as a separate data set.
For test [4] the target is unchanged. This is another data set of the same source.

Where two headings read alike, the source gives them in different places. Where no end group is shown, it is not given here.

B1: minibinder 7.8 (designed binder)
chain: SAMEYYVKELLRTAEYAREAGDPEYVRKALEQAELVARILHNEELKEEIREVEEEL
modifications: also: biotinylated (site not given here)
As a reminder, the Kd is a measure of binding affinity in units of concentration. The low end stands for tighter binding, the high end for weaker binding. B1 displayed a Kd in test [1] of 40 nM.

B2: minibinder 7.12 (designed binder)
chain: SAMEYYVKELLRTAEYAREAGDPEDVRNALEQAELVARILHNEELKEEIREVEEEL
modifications: also: biotin
For the molecule B2, in test [1], the Kd turned out to be 108 nM.

B3: minibinder 7.2 (designed binder)
chain: SAMEYYVKVLLRTAEYAREAGDPEYVRKALEKAELVARILHNEELKEEIREVEEEL
modifications: also: biotin
Molecule B3 registered a Kd in test [1] of 17 nM. Against the preceding molecule, the Kd is about 6.4-fold lower.

B4: minibinder 7.9 (designed binder)
chain: SAMEYYVKELLRTAEYAREAGDPEYVRNALEQAELVARILHNEELKEEIREVEEEL
modifications: also: biotinylated (site not given here)
In test [1], B4 yielded a Kd of 95 nM.

B5: minibinder 7.10 (designed binder)
chain: SAMEYYVKELLRTAEYAREAGEPEYVRNALEQAELVARILHNEELKEEIREVEEEL
modifications: also: biotin
B5 gave a Kd in test [1] of 190 nM.

B6: minibinder 7.7 (designed binder)
chain: SAMEYYVKELLRTAEYAREAGDPEYVRKALEKAELVARILHNEELKEEIREVEEEL
modifications: also: biotin
In test [1], B6 had an equilibrium dissociation constant (Kd) of 31 nM.

B7: minibinder 7.4 (designed binder)
chain: SAMEYYVNVLLRTAEYAREAGDPEDVRKALEKAELVARILHNEELKEEIREVEEEL
modifications: also: biotin
In turn, B7 registered a Kd in test [1] of 34 nM.

B8: minibinder 7.11 (designed binder)
chain: SAMEYYVKELLRTAEYAREAGDPEDVRKALEQAELVARILHNEELKEEIREVEEEL
modifications: also: biotin
In test [1], B8 came in with a Kd of 45 nM.

B9: minibinder 7.5 (designed binder)
chain: SAMEYYVKVLLRTAEYAREAGDPEDVRKALEQAELVARILHNEELKEEIREVEEEL
modifications: also: biotin
B9 returned a Kd in test [1] of 1.1 nM. This Kd is about 41-fold lower than that of the molecule before.

B10: minibinder 7.3 (designed binder)
chain: SAMEYYVKVLLRTAEYAREAGDPEYVRKALEQAELVARILHNEELKEEIREVEEEL
modifications: also: biotin
B10 returned a Kd in test [1] of 29 nM.

B11: minibinder 7.6 (designed binder)
chain: SAMEYYVKELLRTAEYAREAGDPEDVRKALEKAELVARILHNEELKEEIREVEEEL
modifications: also: biotin
In test [1], B11 returned a Kd of 24 nM.

B12: minibinder 8 with C-terminal Avi-His6 tag (designed binder)
chain: SLEEEAERVVEELVKEFNLSETQEIALRRYAEFAAKAGASEEVIEELLRRVAERLS-{Avi-His6}
modifications: also: biotin (for BLI), position not given here
In test [2], B12 had a dissociation constant (Kd) of 1200 nM.

B13: minibinder 6 with C-terminal Avi-His6 tag (designed binder)
chain: SAVELYLELLERSLRLAVEAGDPEDAERILRKARQIARVFNDPELEEIVERMEEILK-{Avi tag-His6}
modifications: also: biotin
In turn, B13 registered a Kd in test [3] of 43 nM. In other words, the double-digit nanomolar range.

B14: minibinder 7 with C-terminal Avi-His6 tag (designed binder)
chain: SAMERYVKVLLRTAELAREAGDPEDVRKALEKAELVARILHNEELKEEIREVEEEL-{Avi tag-His6}
modifications: also: biotin
Consider B14, for which the Kd in test [2] turned out to be 440 nM.

B15: minibinder 8.5 (designed binder)
chain: SLEEEAERVVEELVKEFNLSRTQEIALRRYAEYAARATASEEVIEELLRRVAERLS
modifications: also: biotin (for BLI), position not given here
Turning to B15, in test [4], binding was characterised by a dissociation constant (Kd) of 170 nM.

B16: minibinder 8.2 (designed binder)
chain: SLEEEAERVVEELVKEFNLSETQEIALRRYAEYAAKAGASEEVIEELLRRVAERLS
modifications: also: biotin (for BLI), position not given here
The molecule B16 came in with a Kd in test [4] of 600 nM.

B17: minibinder 8.4 (designed binder)
chain: SLEEEAERVVEELVKEFNLSRTQEIALRRYAEYAARAGASEEVIEELLRRVAERLS
modifications: also: biotin (for BLI), position not given here
In test [4], B17 had a Kd of 230 nM.

B18: minibinder 8.1 (designed binder)
chain: SLEEEAERVVEELVKEFNLSRTQEIALRRYAEFAAKAGASEEVIEELLRRVAERLS
modifications: also: biotinylated (site not given here)
Regarding B18, in test [4], binding was put at a Kd of 690 nM.

B19: minibinder 8.3 (designed binder)
chain: SLEEEAERVVEELVKEFNLSRTQEIALRRYAEYAAKAGASEEVIEELLRRVAERLS
modifications: also: biotin (for BLI), position not given here
On to B19, for which the affinity in test [4], expressed as Kd, was 230 nM. Compared with the last molecule, the Kd is about 3-fold lower.
